According to article PMC9706586:

Columns and labels:
[1] = target: CD20 (human) (UniProt P11836); assay: SPR; Biacore T200, CM5 chip with immobilised anti-His antibody, 20 °C; His-tagged receptor or antigen captured; serial dilutions of anti-CD20 X-body, IgG or IgA injected (120 s binding, 240 s dissociation, 30 µL/min); 1:1 binding kinetic model or steady-state affinity model
[2] = target: FcγRIIIa^F158 (human) (UniProt P08637); assay: as above
[3] = target: FcγRIIb (human) (UniProt P31994); assay: as above
FcγRIIb (human), sequence (P31994 43-217): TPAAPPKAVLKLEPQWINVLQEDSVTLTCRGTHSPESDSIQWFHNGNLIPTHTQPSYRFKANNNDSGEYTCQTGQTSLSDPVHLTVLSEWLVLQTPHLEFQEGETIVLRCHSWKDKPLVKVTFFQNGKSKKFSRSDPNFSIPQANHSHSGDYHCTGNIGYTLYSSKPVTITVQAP

[4] = target: FcγRIIIa^V158 (human); assay: as above
[5] = target: FcγRIIa^H131 (human) (UniProt P12318); assay: as above
FcγRIIa^H131 (human), sequence (P12318 34-217): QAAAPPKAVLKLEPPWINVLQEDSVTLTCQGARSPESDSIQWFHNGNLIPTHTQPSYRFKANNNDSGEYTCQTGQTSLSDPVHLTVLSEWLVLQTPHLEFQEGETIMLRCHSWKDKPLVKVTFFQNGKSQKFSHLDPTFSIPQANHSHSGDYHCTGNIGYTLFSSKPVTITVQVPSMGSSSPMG

[6] = target: FcRn (UniProt P55899); assay: as above
[7] = target: FcγRI (UniProt P12314); assay: SPR; Biacore T200; CM5 chip with immobilised anti-His antibody captures the His-tagged receptor or antigen; serial dilutions of antibody injected (120 s binding, 240 s dissociation, 30 µL/min); 20 °C; 1:1 binding kinetic model or steady-state affinity model
FcγRI, sequence (P12314 16-374): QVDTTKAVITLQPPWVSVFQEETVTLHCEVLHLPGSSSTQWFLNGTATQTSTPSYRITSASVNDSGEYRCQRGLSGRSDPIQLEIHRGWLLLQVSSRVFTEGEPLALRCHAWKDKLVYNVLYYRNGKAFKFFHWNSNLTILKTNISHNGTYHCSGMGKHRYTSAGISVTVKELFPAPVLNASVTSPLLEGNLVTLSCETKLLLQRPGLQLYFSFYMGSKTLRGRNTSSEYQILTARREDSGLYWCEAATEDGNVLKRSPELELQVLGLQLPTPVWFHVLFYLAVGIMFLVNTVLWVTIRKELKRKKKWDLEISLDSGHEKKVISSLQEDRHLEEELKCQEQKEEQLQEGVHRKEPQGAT

[8] = target: CD89 (human) (UniProt P24071); assay: as above
CD89 (human), sequence (P24071 22-287): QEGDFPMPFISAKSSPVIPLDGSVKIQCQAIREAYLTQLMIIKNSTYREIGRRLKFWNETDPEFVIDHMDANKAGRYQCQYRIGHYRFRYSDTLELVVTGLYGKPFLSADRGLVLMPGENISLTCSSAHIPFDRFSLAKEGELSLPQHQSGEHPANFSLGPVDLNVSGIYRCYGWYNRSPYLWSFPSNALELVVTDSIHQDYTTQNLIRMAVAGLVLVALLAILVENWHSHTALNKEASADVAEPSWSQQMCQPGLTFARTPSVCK

CD20 (human), sequence (P11836 whole entry): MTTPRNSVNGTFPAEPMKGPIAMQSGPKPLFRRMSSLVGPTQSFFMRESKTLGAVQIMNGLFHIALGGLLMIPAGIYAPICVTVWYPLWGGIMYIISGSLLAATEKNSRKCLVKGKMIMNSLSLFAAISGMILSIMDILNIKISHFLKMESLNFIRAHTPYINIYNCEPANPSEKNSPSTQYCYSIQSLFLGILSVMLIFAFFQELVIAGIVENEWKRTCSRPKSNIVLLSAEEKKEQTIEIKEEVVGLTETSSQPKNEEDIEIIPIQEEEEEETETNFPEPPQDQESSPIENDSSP
FcγRIIIa^F158 (human), sequence (P08637 17-208): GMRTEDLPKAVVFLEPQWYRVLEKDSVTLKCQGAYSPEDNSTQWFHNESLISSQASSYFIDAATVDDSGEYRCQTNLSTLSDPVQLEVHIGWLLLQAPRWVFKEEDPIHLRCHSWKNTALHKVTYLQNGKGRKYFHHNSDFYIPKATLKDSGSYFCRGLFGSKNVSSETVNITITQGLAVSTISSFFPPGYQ

For Rituximab IgA (antibody), which Kd [1] is on record?
The Kd was 6.71 nM.

What does the source list for Rituximab IgG (antibody)?
Kd [1]: 3.74 nM; Kd [2]: 0.0663 nM; Kd [3]: 0.00277 nM; Kd [4]: 0.0603 nM; Kd [5]: 0.0548 nM; Kd [6]: 0.0391 nM

How did the Kd [7] turn out when trastuzumab IgA (antibody) was run?
The Kd was 272 nM.

And the Kd [8]?
Its Kd is 58.8 nM.

How did the Kd [7] turn out when trastuzumab IgG (antibody) was run?
The Kd was 113 nM.
